Measured values from US20030175929A1 (ORIENTAL YEAST, published 2003).

B1: human creatine kinase M type subunit (enzyme)
chain: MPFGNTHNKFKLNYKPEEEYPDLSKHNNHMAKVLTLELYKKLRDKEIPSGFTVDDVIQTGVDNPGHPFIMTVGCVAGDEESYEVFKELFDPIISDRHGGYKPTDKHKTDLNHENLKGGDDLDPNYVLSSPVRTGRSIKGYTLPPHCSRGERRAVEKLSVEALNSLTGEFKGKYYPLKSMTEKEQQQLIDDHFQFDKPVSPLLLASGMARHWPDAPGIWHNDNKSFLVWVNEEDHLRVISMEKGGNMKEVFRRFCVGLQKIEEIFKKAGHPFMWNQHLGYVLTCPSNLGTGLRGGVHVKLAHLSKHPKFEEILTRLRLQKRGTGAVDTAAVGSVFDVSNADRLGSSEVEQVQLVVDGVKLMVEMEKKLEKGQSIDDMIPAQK
notes: Co-expressed with the CK-B subunit from the single plasmid pTRP-hCKMB; also called CK-M subunit; CK-M
B2: human creatine kinase B type subunit (enzyme)
chain: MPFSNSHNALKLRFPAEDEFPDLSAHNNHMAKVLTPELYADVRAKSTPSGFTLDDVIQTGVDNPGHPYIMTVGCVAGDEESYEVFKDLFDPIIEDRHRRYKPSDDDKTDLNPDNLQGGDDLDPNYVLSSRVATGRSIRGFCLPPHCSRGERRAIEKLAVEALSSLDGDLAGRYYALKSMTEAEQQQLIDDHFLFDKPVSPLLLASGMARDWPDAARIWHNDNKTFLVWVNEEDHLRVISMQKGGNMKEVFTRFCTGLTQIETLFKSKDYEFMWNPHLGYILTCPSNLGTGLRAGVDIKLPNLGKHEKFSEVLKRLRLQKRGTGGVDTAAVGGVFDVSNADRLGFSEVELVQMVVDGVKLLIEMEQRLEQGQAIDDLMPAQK
notes: Co-expressed with the CK-M subunit from the single plasmid pTRP-hCKMB; also called CK-B subunit; CK-B

Key:
[1] = biological target: the molecule itself; experiment: co-expression in E. coli; Q-Sepharose separation of dimeric CK isozymes (homodimer)
Protocol: (§1) The cells thus obtained were collected and suspended in a 50 mM phosphate buffer (pH 7.5) containing 5 mM of mercaptoethanol. After disrupting the cells by ultrasonication, the supernatant was referred to as a recombinant CK extract. From this extract, CK was recovered as a precipitate by 70%-saturation ammonium sulfate salting out. The precipitate thus salted out was dissolved in 1.5 M ammonium sulfate (pH 7.5) and subjected to hydrophobic column chromatography by using a Buthyl-Toyopearl C650 gel (manufactured by Tosoh). The CK activity was eluted at 1.5-0 M-gradient (pH 7.5) ammonium sulfate elution. The CK activity elution peaks were combined, concentrated by using an ultrafiltration membrane (YM10, manufactured by Amicon) and then dialyzed against a 50 mM phosphate buffer (pH 7.5). Fractions eluted by the hydrophobic chromatography were adsorbed by a Q-Sepharose column (manufactured by Pharmacia, Sweden) and thus it was attempted to separate CK isozymes.
(§2) As a result, the CK activity was separated into the MM type (unadsorbed fraction), the MB type (elution peak 1) and the BB type (elution peak 2). […] It was thus found out that CK-MB was expressed at a high dose in this recombinant strain. It could be also confirmed that three human recombinant CK isozymes could be prepared by using this expression strain alone. […]

[2] = biological target: B2; experiment: co-expression in E. coli; Q-Sepharose separation of dimeric CK isozymes; MB fraction purified to electrophoretic homogeneity by Sephacryl-S200HR gel filtration
Protocol: as §1, §2

Binder | binding result [1] | binding result [2]
B1 | binds | binds
B2 | binds | 
